Measurements: the supplement of paper PMC9170038

System: MS2 coat protein
Experiment: apparent KD of MS2 coat protein; designed switch direction (-1 OFF switch, 1 ON switch): 1; higher = weaker reporter binding
How it was run: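 RNA switches sharing common flanks were transcribed by stalled E. coli RNA polymerase on Illumina chips. A doubling series of SNAP-549-labelled MS2 coat protein, from 0.7 or 1.5 nM to 3 µM, was applied in Tris-HCl pH 7.5 buffer with KCl, MgCl2, BSA, DTT, tRNA and Tween-20. Each step lasted 0.8–1.5 h at the bottom of the series and 10–20 min at the top. Normalised cluster fluorescence was curve-fitted, giving apparent KD as the per-design median over clusters.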

[1] = input ligand: microRNA oligo, concentration not stated
[2] = Eterna round: R95, input ligand: FMN 200 uM
[3] = Eterna round: R95, input ligand: microRNA oligo, concentration not stated
[4] = Eterna round: R95, input ligand: none

Sequence | apparent KD of MS2 coat protein (input ligand: FMN 200 uM) | apparent KD of MS2 coat protein [1] | apparent KD of MS2 coat protein (input ligand: none) | apparent KD of MS2 coat protein [2] | apparent KD of MS2 coat protein [3] | apparent KD of MS2 coat protein [4]
AACCAGGCCAGAGGAUAUGGGAAAGGAAGUGUACUAGAAGGCUGCAGCCUGAACAAACAUGAGGAUCACCCAUGUAAAACGGUG [PowerStrip SSNG 1.27] (Eterna round: R96, puzzle: Same State NG 1) | 296 nM | 150 nM | 304 nM |  |  | 
GCUCGAUGAGCGGUUUACAUGAGGAUCACCCAUGUAAAUGGGCAGGAUAUUUACGUGCUUUGUGUAGAGAAGGGCCCAUCGAGC [SameState NG3 #75] (Eterna round: R96, puzzle: Same State NG 3) | 18.1 nM | 47.4 nM | 112 nM |  |  | 
GGCUAUCGCGUACGAUAGCUUAAGCGUGUACAUGAGGAUCACCCAUGUCAUGUACAAGCUUUUUGCUCGUCUUAUUG [JL-shm-2.34 JL mod] (puzzle: Sensor for hsa-mir-208a) |  |  |  | 195 nM | 19.4 nM | 493 nM
UUUUUGUUCCGAGGAUAUCCUUUUUUCUUACAUGAGGAUCACCCAUGUAAAGGGAUUGAGUUGUAGGAGAAGGCGGUUUUGUUU [JR_SSNG2_Sub061] (Eterna round: R96, puzzle: Same State NG 2) | 16.4 nM | 26.1 nM | 26.2 nM |  |  | 
CGUGAACAUGAGGAUCACCCAUGUGAAAAACGUAGAGGAUAUGUCACAUGAGUGUAAAAGACAGAAGGCUAUCGUG [Mod 2 of Round 1 starryjess' Mod pf Nando] (Eterna round: R96, puzzle: Same State 1) | 35.4 nM | 172 nM | 243 nM |  |  | 
AGCUAUCGAAAACGAUAGCAAAAGCAUGUACAUGAGGAUCACCCAUGUCAUGUACAAGCUUUUUGCUCGUCUUGAAA [Zipper 23 - 9] (puzzle: Sensor for hsa-mir-208a) |  |  |  | 132 nM | 13 nM | 1390 nM
AUAAAACAUGAGGAUCACCCAUGUCAACAAAGUCGAGGAUAUGGGCAAAUAAAAUAAGAACCAGAAGGCUAAUAAU [salish99_ss1_r3_052] (puzzle: Same State 1) |  |  |  | 246 nM | 378 nM | 375 nM
CCGAAAGGAGUAGGAUAUGUAGGAUAUUCCUACAUGAGGAUCACCCAUGUUCGCAUGGAAGAAGGACAGAAGGACACGGAAACG [pwkr ssNG2 2FMN + 1F5.14] (Eterna round: R96, puzzle: Same State NG 2) | 212 nM | 19 nM | 66.2 nM |  |  | 
CCAACAUACAAUUUAAGAUCACAUGAGGAUCACCCAUGUAUGCAGGAUAUCAGCUCGUGUAGAGCUGAGAAGGGCAAUUUAAUU [SSNG3/1-A4] (Eterna round: R96, puzzle: Same State NG 3) | 103 nM | 193 nM | 265 nM |  |  | 
CGUCCGGCCUGAGCUGGACGGAUGCAUGUACAUGAGGAUCACCCAUGUUCAUGUGCAGGCUUUUUGCUCGUCUUGUG [salish99_mir208a_modof_jandersonlee_002] (puzzle: Sensor for hsa-mir-208a) |  |  |  | 20.1 nM | 9.62 nM | 18.1 nM
GUGAAGAAUUAAGGAUAUUGAAUACAUAUGUUUAACAUGAGGAUCACCCAUGUGGGUUGCGGUAUCGAGAAGGUAAAUUACUGG [salish99_SSNG2_r04_032] (Eterna round: R96, puzzle: Same State NG 2) |  | 81.7 nM |  |  |  | 
UAUGAUGCCGUAGGAUAUCUAGGAUAUGGACGAGGAUCACCCGAGCAGCAUCAGCGCACCAGAGGAGAGAAGGACGCUUUGGAA [pwkr ssNG2 2F5 2FMN.22] (Eterna round: R96, puzzle: Same State NG 2) | 477 nM | 658 nM | 486 nM |  |  | 
GGUCCAGCCUGAGCUGGACAAAAGCAUGUACAUGAGGAUCACCCAUGUCAUGUACAGGCUUUUUGCUCGUCUUAAAA [JL mod - D87 - 7] (puzzle: Sensor for hsa-mir-208a) |  |  |  | 622 nM | 16.1 nM | 825 nM
AUUAUUUAUGCAGGAUAUGAUUAACAUGAGGAUCACCCAUGUGGUGUUGUGAGUAAGGAGAGUGAUCAGAAGGGCAGUUUUUUU [JMF's solution 43] (Eterna round: R96, puzzle: Same State NG 2) | 568 nM | 231 nM | 406 nM |  |  | 
GUUAAACAUGAGGAUCACCCAUGUAAUAAUAUGGGAGGAUAUCAGAAAGUAUGUAUGAAAUGAGAAGGCCUAAUUG [Mat - Same State 1 - Mod of Eli - D78] (puzzle: Same State 1) |  |  |  | 57.9 nM | 154 nM | 124 nM
UGUUGUAUUACAGGAUAUCUAUGAUUUAUAUUUAGAGAAGGGUAUUCACAUGAGGAUCACCCAUGUAUAUACGAGGAAGUUGUG [JMF's solution 61] (Eterna round: R96, puzzle: Same State NG 1) |  | 33.6 nM |  |  |  | 

Sequence | apparent KD of MS2 coat protein (input ligand: FMN 200 uM) | apparent KD of MS2 coat protein [1] | apparent KD of MS2 coat protein (input ligand: none) | apparent KD of MS2 coat protein [2] | apparent KD of MS2 coat protein [3] | apparent KD of MS2 coat protein [4]
GUAGAAUAACUAGAGGAUAUCCGAGUGGUAACAUGAGGAUCACCCAUGUGAUGAAAGGAACAUGAGGAGAAGGCUAGAAGUAAUG [Mat - Same State 2 - Mod of JL - D81] (puzzle: Same State 2) |  |  |  | 17.5 nM | 61.1 nM | 48.1 nM
GGAGCCAGCACCGAGGAUAUUCAUAUUAAAACAUGAGGAUCACCCAUGUAGGCCAGAAGGCCUUGGGAGAAGGCGGAUUGGCUCG [Xeonanis - 10] (puzzle: Same State 2) |  |  |  | 35.3 nM | 327 nM | 496 nM
UUACCGCGGGUAGGAUAUGGUCACACUUCUAAAACAUGAGGAUCACCCAUGUCCGACACAUAAAGCCAGAAGGACCCGCGGCUC [Esbea] (Eterna round: R96, puzzle: Same State NG 2) | 20.8 nM | 48.5 nM | 71.4 nM |  |  | 
AGGCUCAGACGAGGAUAUACGUGGUCACAUGAGGAUCACCCAUGUCUCGAGCUUCGGCUCGAGGCGUAGAAGGUGUCUGAGCCA [SSNG2/6-C1] (Eterna round: R96, puzzle: Same State NG 2) | 195 nM | 406 nM | 609 nM |  |  | 
CACAAUCUAUCUGAGGAUAUCAUGAAAAAAACAUGAGGAUCACCCAUGUGCAGGAAAACUGCAUAUGAGAAGGCAGAUAGAUUGA [salish99_SS2_r3_016] (puzzle: Same State 2) |  |  |  | 38 nM | 1260 nM | 678 nM
UUGUUUCGUCAUUAACAUGAGGAUCACCCAUGUAAAGAACCAGAGGAUAUGCAUGUUUGAUUGUAGCAGAAGGCUGAUUGUUGU [JR_SSNG3_Sub033] (Eterna round: R96, puzzle: Same State NG 3) |  | 42.7 nM |  |  |  | 
GAAAAGGCGACGCAGGAUAUGAAAGGUGAAACAUGAGGAUCACCCAUGUGCUACCUUCCGAUAAAUCAGAAGGGCGACGCCAAGC [Soleusat] (puzzle: Same State 2) |  |  |  | 9.79 nM | 8.54 nM | 9.6 nM
GUAGCAUACCGAGGAUAUUCAUAUUAUAAACAUGAGGAUCACCCAUGUGGCCGAUUACGGCCUUGGGAGAAGGCGGAAUGCUAC [Xeonanis - 20 Mod17] (Eterna round: R96, puzzle: Same State NG 2) | 44.6 nM | 641 nM | 909 nM |  |  | 
GGCGAAGGAGAAGGAUAUAUCUUGGACAUAUAGAUGCACAUGAGGAUCACCCAUGUCAUCAUGGGAUAGAAGGUCUGCUUCACC [Eternabot solution 33] (Eterna round: R96, puzzle: Same State NG 2) | 13.2 nM | 10.3 nM | 14.2 nM |  |  | 
UGUACCUUCACAGGAUAUCAUGCGAAAAUUGCGUGAGAAGGGUGAAUACUGUGUUAAUAAAAGCACAUGAGGAUCACCCAUGUA [SameState NG1 #57] (Eterna round: R96, puzzle: Same State NG 1) | 392 nM | 12.7 nM | 43.4 nM |  |  | 
UACAAUCUAUCUGAGGAUAUCAUGUAUUAAACAUGAGGAUCACCCAUGUGCAGGAAAACUGCAUAUGAGAAGGCAGAUAGAUUGU [salish99_ss2_r3_064] (puzzle: Same State 2) |  |  |  | 428 nM | 41.9 nM | 168 nM
UUGCGCUGUCGAGAGGAUAUGCGGUGUUGGACAUGAGGAUCACCCAUGUUAGCGAUAGCAUUACGGUAGAAGGCUCUUCAGCUGC [salish99_ss2_r3_096] (puzzle: Same State 2) |  |  |  | 23.4 nM | 17 nM | 21.9 nM
GGUCCAGCCUGAGCUGGACAAAAGCAUGUACAUGAGGAUCACCCAUGUUCAUGUACAAGCUUUUUGCUCGUCUUAGU [salish99_208a_r3_069] (puzzle: Sensor for hsa-mir-208a) |  |  |  | 536 nM | 16.3 nM | 730 nM
GAUUAACAUGAGGAUCACCCAUGUCGUUUAAUGGGAGGAUAUACGUGGACCGUAGUCCGCGUAGAAGGCCUAAUUG [JL-ss1-3.22 janelle mod] (puzzle: Same State 1) |  |  |  |  | 76.1 nM | 
GAGGGCGAAAGCAACAUGAGGAUCACCCAUGUCCUCGGAGGGCAGGAUAUCCGGCGGUAGCCGAAGGAGAAGGGUCGGUAAGAA [AK SSNG3-V2-33.1] (Eterna round: R96, puzzle: Same State NG 3) | 159 nM | 107 nM | 584 nM |  |  | 
